Source: US20200277377A1 (WUXI BIOLOGICS SHANGHAI, published 2020)
Blank lines part the entries; values can stand above or below the binder they belong to.

How the values were obtained:
[1] = biological target: T1, hCTLA-4.ECD.hFc-Biotin (human, UniProt P16410 36-161, biotinylated (sites not given)); test: FACS competition, hCTLA-4.ECD.hFc-Biotin on CD80-expressing CHO cells
T1 construct: extracellular domain; also called Biotinylated CTLA-4.ECD.hFc; biotinylated human CTLA4.ECD.hFc; not shown: human Fc tag (hFc)
T1 sequence (looked up): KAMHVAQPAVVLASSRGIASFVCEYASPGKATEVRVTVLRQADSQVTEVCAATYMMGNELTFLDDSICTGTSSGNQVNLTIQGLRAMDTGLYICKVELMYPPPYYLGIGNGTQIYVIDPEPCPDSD
Protocol: PE conjugated Streptavidin was purchased from eBioscience (Catalog number 12-4317).
Then the mixtures of antibody and CTLA-4 were added to the cells and incubated for 1 hour at 4° C. The cells were washed two times with 200 μL FACS buffer (DPBS containing 1% BSA). Streptavidin PE 1 to 333 diluted in FACS buffer was added to the cells and incubated at 4° C. for 1 hour. Additional washing steps were performed two times with 200 μL FACS buffer followed by centrifugation at 1500 rpm for 4 minutes at 4° C. Finally, the cells were resuspended in 100 μL FACS buffer and fluorescence values were measured by flow cytometry and analyzed by FlowJo.

[2] = biological target: T2, cynomolgus monkey CTLA-4 ECD-6×His (cynomolgus monkey); test: ELISA, coated cynomolgus monkey CTLA-4.ECD-6×His
T2 construct: extracellular domain; Bought; also called cynomoguls monkey CTLA-4.ECD-6×His
Protocol: (§1) ELISA was used to test binding of anti-human CTLA-4 antibodies to human, murine and cynomolgus monkey CTLA-4 protein. A 96-well plate was coated with human CTLA-4.ECD-6×His (1.0 μg/mL), cynomoguls monkey CTLA-4.ECD-6×His (0.5 μg/mL) or mouse CTLA-4.ECD-6×His (0.5 μg/mL) at 4° C. for 16-20 hours. After 1 hour blocking with 2% BSA in DBPS, testing antibodies, as well as positive and negative control antibodies were added to the plates and incubated at room temperature for 1 hour. The binding of the antibodies to the plates were detected by HRP-conjugated goat anti-human IgG antibody (1:5000 dilution) with 1 hour incubation. The color was developed by dispensing 100 μL of TMB substrate for 8 mins, and then stopped by 100 μL of 2N HCl.

[3] = biological target: T3, human CTLA-4.ECD.hFc (human, UniProt P16410 36-161); test: competition ELISA, coated human CTLA-4.ECD.hFc, competitor CD80-6×His
T3 construct: extracellular domain; also called hCTLA-4.ECD.hFc; not shown: human Fc tag (hFc)
T3 sequence (looked up): T1 sequence (looked up)
Protocol: Plates were coated with human CTLA-4.ECD.hFc (0.5 μg/mL) at 4° C. for 16-20 hours. […] After washing three times with PBS containing 0.05% Tween 20, biotinylated anti-His tag antibody was 1:2000 diluted and added. The plates were incubated at room temperature for 1 hour. The bound ligands were detected by HRP conjugated streptavidin (1:20000). The color was developed by dispensing 100 μL of TMB substrate for 8 mins, and then stopped by 100 μL of 2N HCl.

[4] = biological target: T4, human CTLA-4.ECD-6×His (human, UniProt P16410 36-161); test: ELISA, coated human CTLA-4.ECD-6×His
T4 construct: extracellular domain; also called WBP316.hCTLA-4.ECD-6×His; hCTLA4-His (WT)
T4 sequence: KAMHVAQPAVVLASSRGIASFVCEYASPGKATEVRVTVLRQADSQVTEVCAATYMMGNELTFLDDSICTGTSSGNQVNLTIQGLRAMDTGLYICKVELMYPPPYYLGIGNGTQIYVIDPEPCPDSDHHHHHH
Protocol: as §1

[5] = biological target: T4, human CTLA-4.ECD-6×His; test: SPR, antibody captured on anti-human Fc, CTLA-4.ECD-6×His as analyte, 1:1 fit
Protocol: Biacore T200, Series S Sensor Chip CMS, Amine Coupling Kit, and 10×HBS-EP were purchased from GE Healthcare. […] In immobilization step, the activation buffer was prepared by mixing 400 mM EDC and 100 mM NHS immediately prior to injection. The CM5 sensor chip was activated for 420 s with the activation buffer. 30 μg/mL of goat anti-human IgG Fcγ antibody in 10 mM NaAc (pH 4.5) was then injected to Fc1-Fc4 channels for 200 s at a flow rate of 5 μL/min. The chip was deactivated by 1 M ethanolamine-HCl (GE). Then the antibodies were captured on the chip. Briefly, 4 μg/mL antibodies in running buffer (HBS-EP+) was injected individually to Fc3 channel for 30 s at a flow rate of 10 μL/min. […] Regeneration buffer (10 mM Glycine pH 1.5) was injected at 10 μL/min for 30 s following every dissociation phase.
The binding kinetics of these antibodies were measured using SPR. The antibodies were captured on immobilized anti-human Fc and CTLA-4-ECD at different concentration was injected orderly. The sensorgrams for reference channel and buffer channel were subtracted from the test sensorgrams. The data was used for 1:1 binding analysis on human, monkey and mouse CTLA-4.ECD-6×His.

[6] = biological target: T5, full length human CTLA-4 on cells (human, UniProt P16410 36-223); test: flow cytometry affinity on cells expressing human CTLA-4
T5 construct: whole, on cells; also called CTLA-4-expressing cell line
T5 sequence (looked up): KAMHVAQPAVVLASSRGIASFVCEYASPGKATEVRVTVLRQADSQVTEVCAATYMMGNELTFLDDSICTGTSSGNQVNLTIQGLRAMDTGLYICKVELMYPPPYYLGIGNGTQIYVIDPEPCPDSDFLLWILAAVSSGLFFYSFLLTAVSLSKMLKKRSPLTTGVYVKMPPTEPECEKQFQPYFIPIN
Protocol: Briefly, HEK293 cells expressing human CTLA-4 were transferred in to 96-well U-bottom plates (BD) at a density of 5×10⁴ cells/well. Testing antibodies were 1:2-fold serially diluted in PBS with 1% BSA and incubated with cells at 4° C. for 1 hour. After centrifugation at 1500 rpm for 4 min, the supernatant was discarded. The secondary antibody, FITC conjugated goat anti-human IgG Fc (3.2 FITC per IgG, Jackson Immunoresearch Lab), was added to re-suspend cells to final concentration 14 μg/ml, and incubated at 4° C. in the dark for 30 min. The cells were then washed once and re-suspended in PBS with 1% BSA, and analyzed by flow cytometery (BD). Fluorescence intensity was converted to bound molecules/cell based on the quantitative beads (Quantum™ MESF Kits, Bangs Laboratories). KD was calculated using Graphpad Prism5.
The affinity of humanized antibodies binding to cell surface CTLA-4 was measured by flow cytometry method, modified from Benedict's method [Benedict 1997 JIM].

IC50 [1]: 6.6 nM
EC50 [2]: 0.05 nM
IC50 [3]: 0.87 nM
EC50 [4]: 0.03 nM
Kd [5]: 0.477 nM
koff [5]: 9.82e-05 s⁻¹
kon [5]: 206000 M⁻¹ s⁻¹
Kd [6]: 5 nM
B1: W3162-1.146.19-z12-uAb.IgG1K (antibody, V domains shown)
VH: QVQLQESGPGLVKPSETLSLTCSVTYHTITSGYDWTWIRKPPGKGMEWIGYISYSGNTNYNPSLKSRVTISRDTSKNQFFLKLSSVTAADTAVYYCASMMVPHYYVMDAWGQGTLVTVSS
VL: DIVMTQTPLSLSVTPGQPASISCRSSQSLLNSDGNTYLYWYLQKPGQSPQLLIYLVSKLGSGVPNRFSGSGSGTDFTLKISRVEAEDVGVYYCVQGTHDPWTFGGGTKVEIK
notes: Humanized; label says IgG1K

IC50 [1]: 0.07 nM
EC50 [2]: 0.05 nM
IC50 [3]: 0.63 nM
EC50 [4]: 0.04 nM
Kd [5]: 0.0968 nM
koff [5]: 0.000119 s⁻¹
kon [5]: 1.23e+06 M⁻¹ s⁻¹
Kd [6]: 0.35 nM
B2: W3162_1.154.8-z35-uAb.IgG1K (antibody, V domains shown)
VH: QVQLVQSGAEVKKPGSSVKVSCKASGYTFTNYFMNWVRQAPGQGLEWMGRVDPEQGRADYAEKFKKRVTITADKSTSTAYMELSSLRSEDTAVYYCARRAMDNYGFAYWGQGTLVTVSS
VL: EIVLTQSPDFQSVTPKEKVTITCSANSALSYMYWYQQKPDQSPKLWVHGTSNLASGVPSRFSGSGSGTDFTLTINSLEAEDAATYYCHHWSNTQWTFGGGTKVEIK
notes: Humanized; label says IgG1K
